Reference: patent US20120225071A1 (Hoffmann-La Roche, published 2012)

B1: monospecific, bivalent <ANGPT2> wildtype antibody (antibody, V domains shown)
VH: EVQLVQSGGGVVQPGRSLRLSCAASGFTFSSYGMHWVRQAPGKGLEWVSYISSSGSTIYYADSVKGRFTISRDNAKNSLYLQMNSLRAEDTAVYYCARDLLDYDILTGYGYWGQGTLVTVSS
VL: not shown
notes: Human IgG1/kappa antibody described in WO 2006/045049; also called wildtype <ANGPT2> antibody; <Ang-2> control antibody
B2: wildtype <IGF-1R> antibody (antibody, V domains shown)
VH: QVELVESGGGVVQPGRSQRLSCAASGFTFSSYGMHWVRQAPGKGLEWVAIIWFDGSSTYYADSVRGRFTISRDNSKNTLYLQMNSLRAEDTAVYFCARELGRRYFDLWGRGTLVSVSS
VL: EIVLTQSPATLSLSPGERATLSCRASQSVSSYLAWYQQKPGQAPRLLIYDASKRATGIPARFSGSGSGTDFTLTISSLEPEDFAVYYCQQRSKWPPWTFGQGTKVESKR
notes: Human IgG1/kappa antibody described in WO 2005/005635; also called <IGF-1R> wildtype antibody; <IGF-1R> control antibody

Experiments:
[1] = biological target: T1, recombinant human IGF-1R on I24 cells (NIH3T3 cells expressing recombinant human IGF-1R) (human, UniProt P08069 31-1367); assay: cellular FACS IGF-1R-ANGPT2 bridging assay on I24 cells; antibody on cells, washed, then ANGPT2, detected with biotinylated anti-ANGPT2 and Streptavidin-PE
T1 construct: whole, on cells; also called IGF-1R in I24 cells
Procedure: (§1) The assay principle is depicted in FIG. 10.
(§2) Briefly, 5×10E5 I24 cells per FACS tube were incubated with total purified antibody mix and incubated on ice for 1 h (titration 160 μg/ml mix). The respective purified antibodies wildtype <IGF-1R> and <ANGPT2> were applied to the I24 cells as controls. Unbound antibody was washed away with 4 ml ice cold PBS (Gibco)+2% FCS (Gibco), cells were centrifuged (5 min at 400 g) and bound bispecific antibody was detected with 50 μl 2 μg/mL human ANGPT2 (R&D Systems) for 1 h on ice. Subsequently, unbound ANGPT2 was washed away once or twice with 4 ml ice cold PBS (Gibco)+2% FCS (Gibco), cells were centrifuged (5 min at 400 g) and bound ANGPT2 was detected with 50 μl 5 μg/mL <ANGPT2>mIgG1-Biotin antibody (BAM0981, R&D Systems) for 45 min on ice; alternatively, cells were incubated with 50 μl 5 μg/mL mIgG1-Biotin-Isotype control (R&D Systems). Unbound detection antibody was washed away with 4 ml ice cold PBS (Gibco)+2% FCS (Gibco), cells were centrifuged (5 min at 400 g) and bound detection antibody was detected with 50 μl 1:400 Streptavidin-PE conjugate (Invitrogen/Zymed) for 45 min on ice protected from light. Unbound Streptavidin-PE conjugate was washed away with 4 ml ice cold PBS+2% FCS. […]

[2] = biological target: T2, human ANGPT2 (R&D Systems) (human, UniProt O15123 68-496, limits assumed); assay: cellular FACS IGF-1R-ANGPT2 bridging assay on I24 cells; antibody on cells, then ANGPT2, detected with biotinylated anti-ANGPT2 and Streptavidin-PE
T2 construct: Bought reagent; also called hANGPT2; Angiopoietin-2
T2 sequence (looked up): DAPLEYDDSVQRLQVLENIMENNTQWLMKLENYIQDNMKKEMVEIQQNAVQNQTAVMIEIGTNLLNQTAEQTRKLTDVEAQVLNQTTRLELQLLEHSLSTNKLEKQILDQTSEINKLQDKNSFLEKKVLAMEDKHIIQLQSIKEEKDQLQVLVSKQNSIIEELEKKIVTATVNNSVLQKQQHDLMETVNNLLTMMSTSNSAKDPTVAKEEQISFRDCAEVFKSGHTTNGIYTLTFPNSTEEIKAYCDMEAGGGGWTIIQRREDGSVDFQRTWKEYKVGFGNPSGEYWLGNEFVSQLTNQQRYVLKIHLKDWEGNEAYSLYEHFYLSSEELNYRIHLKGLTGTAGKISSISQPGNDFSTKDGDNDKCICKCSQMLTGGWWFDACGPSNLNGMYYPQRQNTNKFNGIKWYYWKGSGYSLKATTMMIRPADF
Procedure: as §1, §2

| Binder | binding result [1] | binding result [2] |
| --- | --- | --- |
| B1 | no binding | – |
| B2 | – | no binding (tested: 2 µg/mL human ANGPT2) |
